In the supplement of paper PMC9112550, “Optimization of the antimicrobial peptide Bac7 by deep mutational scanning” (BMC Biology, 2022):

Each sequence was assayed on Escherichia coli TOP10 (assay: shrunken log2 fold change of peptide-encoding DNA abundance (4.5 h post-induction vs induction); higher = less antimicrobial activity (less host growth inhibition)). Conditions: time post-induction: 4.5 h; library: site-saturation at positions 5, 18, 19, 20.
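Further: peptides expressed intracellularly from a pBAD plasmid library in pooled LB shake-flask culture, induced with 0.3% L-arabinose, DNA abundance read by NGS, three biological replicates, DESeq2 with apeglm shrinkage.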

Row | Sequence | shrunken log2 fold change
1 | RRIRHRPPRLPRPRPRPADLPRP | -0.0314
2 | RRIRHRPPRLPRPRPRPADYPRP | -0.291
3 | RRIRHRPPRLPRPRPRPAEGPRP | -0.00235
4 | RRIRHRPPRLPRPRPRPAEQPRP | 0.0649
5 | RRIRHRPPRLPRPRPRPAERPRP | 0.0935
6 | RRIRHRPPRLPRPRPRPAFCPRP | 0.0444
7 | RRIRHRPPRLPRPRPRPAFEPRP | -0.0402
8 | RRIRHRPPRLPRPRPRPAGMPRP | -0.411
9 | RRIRHRPPRLPRPRPRPAGRPRP | 0.29
10 | RRIRHRPPRLPRPRPRPAHMPRP | -0.0835
11 | RRIRHRPPRLPRPRPRPAIEPRP | 0.0588
12 | RRIRHRPPRLPRPRPRPAIQPRP | 0.0477
13 | RRIRHRPPRLPRPRPRPAKYPRP | 0.136
14 | RRIRHRPPRLPRPRPRPALTPRP | 0.0729
15 | RRIRHRPPRLPRPRPRPALVPRP | -0.0926
16 | RRIRHRPPRLPRPRPRPAMQPRP | 0.325
17 | RRIRHRPPRLPRPRPRPANAPRP | -0.0554
18 | RRIRHRPPRLPRPRPRPANPPRP | 0.0212
19 | RRIRHRPPRLPRPRPRPAQNPRP | 0.212
20 | RRIRHRPPRLPRPRPRPASNPRP | -0.456
21 | RRIRHRPPRLPRPRPRPASPPRP | 0.158
22 | RRIRHRPPRLPRPRPRPATLPRP | -0.24
23 | RRIRHRPPRLPRPRPRPATMPRP | -0.123
24 | RRIRHRPPRLPRPRPRPATVPRP | 0.00308
25 | RRIRHRPPRLPRPRPRPAVEPRP | -0.0419

Row | Sequence | shrunken log2 fold change
26 | RRIRHRPPRLPRPRPRPAYVPRP | -0.102
27 | RRIRHRPPRLPRPRPRPCCCPRP | -0.421
28 | RRIRHRPPRLPRPRPRPCCMPRP | -0.43
29 | RRIRHRPPRLPRPRPRPCDNPRP | -0.207
30 | RRIRHRPPRLPRPRPRPCGKPRP | -0.00804
31 | RRIRHRPPRLPRPRPRPCHFPRP | -0.0384
32 | RRIRHRPPRLPRPRPRPCHLPRP | -0.113
33 | RRIRHRPPRLPRPRPRPCIMPRP | -0.0341
34 | RRIRHRPPRLPRPRPRPCIVPRP | -0.0379
35 | RRIRHRPPRLPRPRPRPCKMPRP | -0.134
36 | RRIRHRPPRLPRPRPRPCMCPRP | -0.245
37 | RRIRHRPPRLPRPRPRPCMKPRP | 0.0319
38 | RRIRHRPPRLPRPRPRPCMRPRP | 0.0267
39 | RRIRHRPPRLPRPRPRPCNHPRP | -0.292
40 | RRIRHRPPRLPRPRPRPCNNPRP | -0.188
41 | RRIRHRPPRLPRPRPRPCPFPRP | -0.654
42 | RRIRHRPPRLPRPRPRPCPHPRP | -0.0102
43 | RRIRHRPPRLPRPRPRPCPWPRP | -0.168
44 | RRIRHRPPRLPRPRPRPCSPPRP | -0.232
45 | RRIRHRPPRLPRPRPRPCSQPRP | -0.00141
46 | RRIRHRPPRLPRPRPRPCTPPRP | -0.382
47 | RRIRHRPPRLPRPRPRPCTVPRP | -0.0523
48 | RRIRHRPPRLPRPRPRPCVDPRP | -0.184
49 | RRIRHRPPRLPRPRPRPCVFPRP | -0.0413
50 | RRIRHRPPRLPRPRPRPCWDPRP | 0.0881

Row | Sequence | shrunken log2 fold change
51 | RRIRHRPPRLPRPRPRPCWQPRP | -0.065
52 | RRIRHRPPRLPRPRPRPCYEPRP | -0.185
53 | RRIRHRPPRLPRPRPRPCYFPRP | -0.117
54 | RRIRHRPPRLPRPRPRPCYLPRP | -0.897
55 | RRIRHRPPRLPRPRPRPDGLPRP | -0.0219
56 | RRIRHRPPRLPRPRPRPDHTPRP | -0.307
57 | RRIRHRPPRLPRPRPRPDHWPRP | -0.0694
58 | RRIRHRPPRLPRPRPRPDIRPRP | 0.0226
59 | RRIRHRPPRLPRPRPRPDITPRP | -0.212
60 | RRIRHRPPRLPRPRPRPDKSPRP | -0.276
61 | RRIRHRPPRLPRPRPRPDKYPRP | -0.146
62 | RRIRHRPPRLPRPRPRPDLFPRP | -0.00544
63 | RRIRHRPPRLPRPRPRPDMMPRP | -0.21
64 | RRIRHRPPRLPRPRPRPDPNPRP | -0.0239
65 | RRIRHRPPRLPRPRPRPDQTPRP | -0.0379
66 | RRIRHRPPRLPRPRPRPDTCPRP | -0.287
67 | RRIRHRPPRLPRPRPRPDTEPRP | -0.172
68 | RRIRHRPPRLPRPRPRPDWWPRP | 0.0937
69 | RRIRHRPPRLPRPRPRPDYAPRP | -0.171
70 | RRIRHRPPRLPRPRPRPDYEPRP | 0.00408
71 | RRIRHRPPRLPRPRPRPEAIPRP | -0.0296
72 | RRIRHRPPRLPRPRPRPECPPRP | -0.0835
73 | RRIRHRPPRLPRPRPRPEDIPRP | -0.00674
74 | RRIRHRPPRLPRPRPRPEENPRP | 0.0237
75 | RRIRHRPPRLPRPRPRPEFRPRP | 0.00953
